Test results reported in patent publication US20240026407A1, “MODIFICATION OF SAPONINS” (GLAXOSMITHKLINE BIOLOGICALS SA, priority 2020, published 2024).

How the values were obtained:
[1] = Example 10: derhamnosylation of saponins in crude bark extract (50%) using WT and engineered rhamnosidases R1 to R5; assay type: biochemical, Quillaja saponaria; details: 50% CBE, 35 degC; for % Right Peak: starting CBE 26; for % Left Peak: starting CBE 30; for % Middle Peak: starting CBE 44
Procedure: Lyophilised powders from clarified cell lysate expressing glucosidases (from Example 8 WT glucosidase and engineered glucosidase polypeptides G1 to G5) and rhamnosidases (from Example 9 WT rhamnosidase and engineered rhamnosidase polypeptides R1 to R5) were dissolved in 200 mM sodium acetate aqueous solution at pH 5.8 to prepare the enzyme solutions at 4 fold the final reaction concentration as shown in Tables 19 and 20.
Each rhamnosidase solution was combined with an equal volume of 200 mM sodium acetate aqueous solution at pH 5.8 and separately with an equal volume of 200 mM sodium acetate aqueous solution at pH 5.8 containing 2 mg/ml glucosidase G5. This is a sufficient loading of glucosidase to effect complete hydrolysis of the relevant glucose moiety within 4 hours.
CBE was adjusted to pH of 6.0 to 6.2 with 2M sodium hydroxide and an equal volume added to the enzyme solution to prepare the reaction mix (i.e. 50% CBE concentration in reaction mix) and the concentration of glucosidase and/or rhamnosidase is shown in Tables 19 and 20. The reaction mix was heated to 35 degC for the time indicated in Tables 19 and 20, after which the reaction was quenched by addition of an equal volume of MeCN containing 2% acetic acid and shaken at room temperature for 10 mins prior to centrifugation (10 min, 4 degC) to remove particulates. Samples were analysed by UV HPLC using method of Experiment 4-4.
The change in composition of the Left, Middle and Right peaks is shown in Tables 19 and 20. The composition changes by the action of the enzymes depending on the presence or absence of the partner enzyme. The extent of reaction is proportional to the enzyme concentration and the reaction time under these conditions. The tables show data for enzyme concentrations and the reaction times providing for equivalent extents of reaction. The improvement resulting from the mutations introduced for each variant is equal to the fold change in enzyme concentration×time (i.e. fold improvement=(enzyme concentration×time) for preceding variant÷(enzyme concentration×time) for later variant). A cumulative fold improvement over the original enzyme variant is calculated by the product of the individual fold improvements.

[2] = Example 9: screening of rhamnosidase variants for derhamnosylation of saponins in crude bark extract; assay type: biochemical, Quillaja saponaria; details: R5 round: 35 deg C, 18 h, lysate 0.0625% v/v, CBE 75% v/v, 100 mM Sodium acetate pH 5.8
Procedure: Libraries of genetic variants encoding mutations in the wild type Kribbella flavida rhamnosidase (SEQ ID No. 1017) were prepared using molecular biology techniques, enzymes were prepared linked to a C-terminally located His-tag. Single monoclonal colonies were grown in 400 ul of expression medium and protein expressed. Cell pellets were lysed in 200 ul of the relevant buffer (Table 17).
Lysate was diluted appropriately in the relevant buffer to allow a lysate loading of the indicated % loading (1% loading corresponds to use of 2 ul original lysate in a 200 ul reaction).
Crude bark extract (CBE) obtained by aqueous extraction of Quillaja saponaria and containing at least 2.80 mg/ml QS-21 (by HPLC-UV) was adjusted to pH 6 by dropwise addition of 2M NaOH with stirring. The relevant concentration of the relevant glucosidase was added. The appropriate relative volume of pH 6 CBE (160 ul (for 80%) or 150 ul (for 75%)) was added to each well of the reaction plate. The reaction plate was sealed and incubated at the relevant temperature and time.
The reaction plate was quenched by adding 200 uL of MeCN (2% AcOH, 1 mg/mL hexanophenone) to each well of the plates. The quenched reaction plate was re-sealed and incubated at 20 deg C. with shaking for 10 min. The reaction plate was then centrifuged (10 min, 4 degC).
200 uL was transferred from each well of the quenched plate to the corresponding wells of a fresh 96 well plate and sealed. The plate was analysed by UV HPLC with the method described in Example 4.
Three key peaks of interest are apparent using this chromatography: Left Peak (retention time approximately 2.30-2.35 min) comprising mainly QS-17 family components; Middle Peak (retention time approximately 2.37-2.42 min) comprising mainly QS-18 family components and desglucosyl-QS-17 family components; and Right Peak (retention time approximately 2.44-2.50 min) comprising mainly QS-21 family components. Peak identity was supported by MS/MS.
Enzyme activity is calculated as the % conversion of the Left Peak present in the crude bark extract: […]

[3] = rhamnosidase 0.16 mg/ml, no glucosidase, 7 h
[4] = rhamnosidase 0.31 mg/ml + glucosidase G5 0.5 mg/ml, 4 h

B1: Variant R5: engineered rhamnosidase polypeptide, variant of Kribbella flavida rhamnosidase SEQ ID No. 1017 (protein)
chain: MSFPAAPARLRFEHRTDPGPVLGIGTATPRLSWQVPTAPDDYRQAGYEVEIARGDAAPEQYTVDSADQVLVPWPGTPLAARESATVRVRVRGDGDWSQWSDPATVEAGLLSADDWTARFVSPRENAGHEAPAPLIGGVIDLPPDIAQARLYATAHGIYEPTLNGTRVGDEQLAPGWTAYEQRLRYQTYDVTDLVAPGENRLELLVGNGWYRGRMSFHDGHSLYGDRLAVLAQLEVTTATGEVKVLASDGTWTTRETNVLADDLYDGQHVDLRRTLGEPGPVDVLDADLSLLVAPDGPPVRVTDVLPAKAVTTSPAGKTLVDFGQNVVGRLRLRVRGGAAGDEIVLRHAEVLEDGELCVRPLRTAKATDSFVLAGPDEVTLEPTLTFHGFRYAEITGVPDLRAEDVEAVVVGSDLRRTGWFESSHPLLDRFHENVVWGMRGNFLDVPTDCPQRDERLGWTGDIQVFSPTASFLFDTAGFLTNWLADLIAEQHKDGSVPFVVPDVLRQPSPATAAWGDAATIVPWVLYERTGDAGLLARQLPSMRAWVDRMAGLAGDDLLWVGGFQFGDWLDPTAPPDDPFRAKADPDVLATAHLARSAEVVALAAEVVGAGELAREYAELAARVRQAFAAEYTTASGRVLSDAATNYALALQWALLPTEAQRKRAGERLADLVRTAGFRISTGFVGTPLMCDALADSGHPDLAYRLLLETGCPSWLYAVTMDATTVWERWDSMLPDGSINPGQMTSFNHYALGAVADWMHRRVAGLAPGDPGYRRIVVDPLFTAHLTKASARHLTPYGEAAVAWSRSGGRVRLEVTVPVGARARVAVPGESAPVEVGHGTHEWTADDVYGETPPLPADATIRQLIDHEPSWTTLAAAATRTGIVADDAELAGRLERYLDHPATELVDAVSPRGFSPSAEALHAELDSVLGR
modifications: Seq ID No. 1017 with mutations A143P, L214M, G215S, G218D, K219G, G357C, G508S, G634A, A690C, Q921H
In the case of B1, the “time to complete hydrolysis of the relevant rhamnose moiety” value ([1]; 2 mg/ml rhamnosidase R5 solution (before mixing with glucosidase solution and CBE)) is reported as at most 4 h, the “cumulative fold improvement over WT rhamnosidase” value ([1]; from enzyme concentration x time for equivalent extent of reaction) is reported as “approximately 30 fold” and the “% change in Left Peak” value [1, 3] is reported as −45%. For the same molecule, the “% change in Middle Peak” value [1, 3] was 27%, the “% change in Right Peak” value [1, 3] was 106% and the “Cumulative Fold improvement in primary enzyme loading × time” value [1, 3] was 31. The “Fold improvement in primary enzyme loading × time” value [1, 3] was 1.9, the “% Right Peak” value [1, 3] was 28% and the “% Left Peak” value [1, 3] was 17%. The “% Middle Peak” value [1, 3] was 56%, the “% change in Left Peak” value [1, 4] was −34% and the “% change in Middle Peak” value [1, 4] was −93%. The “% change in Right Peak” value [1, 4] was 296%, the “Cumulative Fold improvement in primary enzyme loading × time” value [1, 4] was 27 and the “Fold improvement in primary enzyme loading × time” value [1, 4] was 1.7. The “% Right Peak” value [1, 4] was 77%, the “% Left Peak” value [1, 4] was 20% and the “% Middle Peak” value [1, 4] was 3%. The “% conversion (Right peak/Left Peak) (−neg control)” value [2] was 2.62%, the “Cumulative FIOP from WT” value ([2]; estimate) was 28.7 and the “Right Peak %” value ([2]; negative control 26.23) was 26.93%. The “Left Peak %” value ([2]; negative control 28.76) was 26.59%, the “Middle Peak %” value ([2]; negative control 45.00) was 46.48% and the “% conversion (Right peak/Left Peak)” value ([2]; negative control 47.70) was 50.32%. The “FIOP (% area increase variant/pos control)” value ([2]; positive control R4) was 1.3.
